2 molecules from article PMC7828216, “Identification and Functional Analysis of Apoptotic Protease Activating Factor-1 (Apaf-1) from Spodoptera litura” (Insects, 2021) can be followed below.

The labels stand for the following.
B1: Sl-Apaf-1-CARD (caspase recruitment domain of Spodoptera litura apoptotic protease activating factor-1, 1-88aa) (domain or fragment, UniProt A0A7T6ZKB7 1-88, looked up)
chain: MDKHKRLLLQKYQQDIIDDLDVAYVYDELFAKHVISAEEVDRMFSLTTRIDQTRFLLDSLIRNGTNGTYQVFVDSLQKDYGWLWEKLA
notes: caspase recruitment domain, residues 1-88; Cloned with Nde I and Xho I in pET-22b; also called Sl-Af88; Sl-Apaf-1-CARD domain protein fragment
B2: Sl-caspase5-CARD (caspase recruitment domain of Spodoptera litura caspase-5, 1-132aa) (domain or fragment, UniProt R4I520 1-132, looked up)
chain: MQREHRDAIQSNFSSLVERTDLDSVVTALYEKGVFSEQMIEPYRNNSELERDRKRRLYMDVTRRGPHAFAHLVDTLGELGYWDLARDLDPDSPFSFSSQQRSHPIPQPKPADNDNFRSLSTSNRPRAEPNRI
notes: Sl-caspase-5 of Spodoptera litura (a homologue of mammalian caspase-9; Dronc), GenBank JQ768051; caspase recruitment domain, residues 1-132; Cloned with Nde I and Xho I in pET-22b; also called caspase-5-CARD domain

For test [1], the target named is B2. Kind of test: ITC; Sl-Apaf-1-CARD at 50 µM, Sl-caspase-5-CARD at 450 µM; 10 mM HEPES, 100 mM NaCl, 2 mM DTT, pH 7.4; 20 °C; 20 injections; VP-ITC; which protein was in the cell is not said. The settings on record: both partners purified.
The target in test [2] is B1. The description is as above. The settings on record: both partners purified.

The molecule B1 had a Ka in test [1] of 1.28e+06 M⁻¹.

As to B2, in test [2], the dH was -15.5 kcal/mol and the “stoichiometry N” value is 1.
